According to article PMC9001736:
pKd: −log10 of the molar value.

What was measured:
[1] = target: ZZ domain of HERC2 (HERC2ZZ, aa 2702–2755 with additional tryptophan at the C-terminus) (human) (UniProt O95714); assay: other fluorescence titration; tryptophan fluorescence; 1 μM HERC2ZZ with increasing REEE peptide; 25 °C; 20 mM Tris (pH 6.8), 150 mM NaCl, 2 mM DTT; excitation 295 nm
[2] = target: ZZ domain of HERC2 (HERC2ZZ, aa 2702–2755 with additional tryptophan at the C-terminus) (human) (UniProt O95714); assay: other fluorescence titration; tryptophan fluorescence; 1 μM HERC2ZZ with 1 μM HERC2DOC present, increasing REEE peptide; 25 °C; 20 mM Tris (pH 6.8), 150 mM NaCl, 2 mM DTT

Chain of ZZ domain of HERC2 (HERC2ZZ, aa 2702–2755 with additional tryptophan at the C-terminus) (human) (O95714 other isoform, or with tags, fused parts or gaps): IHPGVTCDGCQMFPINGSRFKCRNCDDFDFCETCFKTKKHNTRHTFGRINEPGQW

REEE peptide (mimetic of the Nt-R cargo degradation signal)
pKd [1]: 5.92 | pKd [2]: 6.00
